The record followed here is patent publication US20050214312A1.

One may read the Kd as the constant that tells how readily two partners part at equilibrium.

The target in the test is recombinant human or murine heat shock protein 70 (hsp70) (human or murine).

RGYVYQGL (modifications not checked) [RGYVYQGL (VSV nucleoprotein amino acids 52-59)]: the Kd is 82 µM.
